The source of these data is the NTF2 design screens of Basanta et al. (2020).

A short description of the data set: protease stability score; higher = more stable; yeast display proteolysis, trypsin and chymotrypsin.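 Note: relative to predicted unfolded state with 0 unfolded-like and 1 meaning tenfold more protease.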
“SEEEEEFRRAVEFIERTIQTGDERILRELADPHVRLEIGDKHDHGRERVVEIWVSIFEKFKNARWEIRDVKVIDGKIYIDGSLIIDGKEHQTLIVSEKVNGRWHLKSIHIH”: the protease stability score was 2.17. Next, “RDEESHLKHLAERIMKSWETGDEHTLRHLFDPNTRSHVEVGDKRWSFIGMENFDRWFRELHEEMGANHTTVHDTKIQGNKLTMDTRLLVGDKEIRTRLIFHIVDGRITHIIIKLE”: 1.31; “DELEHDAREYFRILEESIRTGDEDLFRKLADPNVRLMIDGKNWIGWESYHEELRQYDHRHVDMRIDHIEVVDGRVHIDGRIEVTITIDGVEHRLNHKLRVEIEKIDGRWHMKFILVE”: 1.67. In turn, “SELIRASETMMKAIADSEETGDWRLLRELFDPHVRIEIGDKKYHGWKYLKHFMEELRIESRTELEHVDTFDGKVRVEGTLTTDLRVNGQEHTINLDIRSIIVKIDGRWIIHKVKIH” returned a protease stability score of 1.14. Take “SEHHEVTEKLTRIILHQWDTGNERSLRKMMDPNARVEIEIGDKSWEYHGRENFRHAVERFDYLDNKEHKDERIVGDFSIIDGRVDGVQGDKRYDTNVEIIIIIVNGRIRAIRFIVR”: the protease stability score was found to be 1.26. On to “SEEEQHFRELLHHILENMYTGDWRSLEKNADPHARLFYYQGDKYELYIGMHEWRRLLHHMHERFRNARFQIDEWHVQGDYFKIVESLDYGDKHIDIRVHIQYVNGRLKEMHIHIH”, for which the protease stability score worked out at 1.24. Next, “DEEEEFATRIMKILLKALLTGDETTLKHLIDPHTRFIFVIGEKIVHVHGRDEIAKFWETLRREIRIEDITIDRIRVQGEKVETDGYIHIWIGDKLVDVESHDEWVIVNGRIKHIRMEIK”: 1.93; “SEEEELLRRIMKRVIHEWLTGDEDSFKELADPNVRVENIVDGRNIEAVGRDEAEHVWRHFDKHLGVDHRELKEFHVFDGVIRVRMKLKIGDKEIEMHLKFIIIDGRFTRVHSHSV”: 1.31. “SEEEDESEEMARLFVKANITGDEKFLYHMADPHVRIHIHQGNKYIELHGREKLEYWLKEWLEKFKNIRYTINDMKVVGEKVTIESTLQIGDKRIHMQIVIVVINGRIHKFEFHLH” had a protease stability score of 0.755. Next, “DEKEHLLKLAIDILKHLHETGDETLAEELADPNTRVHYGDKHIHGRQRYIEHLHRERRRLGVDHSQIELHNWEVVDGRLHLDGKLTLLVGDKRIEFKVRIIMDKVNGRWILHSLEFH”: 0.608. The value for “DEEEEHSKLADEEMLHNLLTGNEEHINKMADPNVRIVIGDKELHGMERWREEMRFFKGARIEIKRSRIFTQGDKMHSEVDGTLNFNGRRVEILIVLVVRKVNGRWRIEMISYHIV” was 1.57; that for “SDEEREIEHLARLFLEWWYTGDEDTIMKNADPHVRHDFNGVENIGRERVAEVVVHLIRELRIKSMHLHDIDIQGNKVDMNIELDGTYNGKRRKREMEIELVFINGRIKSSHVTIK” was 1.17. The sequence “DHLRHTVERMVLHLLRLSLTGDEEEWLKLLDPNTKLEVGDKTRHGREDVAQFLLEMRVERVEVSDYRFNNVNGVVRVEIDGHFDFEYDGKREDSRVEIYLLFEKVNGKWHLKFVKVVFK” registered a protease stability score of 1.69. The value for “SEYEEESRIAYELFLETVRTGDEDTSREQADPNVRVDVNGVHLHGRELWAEFVSKYKGMQLDLHHVEIQGNKVTNDGTLTVNGVRRKVHLRINKVNGKWILESVHIH” was 1.32; that for “SEHFEIALEILKLFLRSRHTGDWKTMEEMADPDVRLEVGEYTNHGWEEILRVLEELRFEIHFIHDHDVKFQGDKLHLDGHVDGVRRVDGQEVRIVSHIEIISVVVNGRAKSYSEHWV” was 0.631; that for “DEEDEIAEKIMRIILRAFTTGDEETVEKLVDPHARLEFNGRETHGRESWFKLMHHLRIRRMRIHNERIHTQGDFSLSHVRIEFDGEINGKRVEDETRMEIRVIVVNGVVKSVSLSTE” was 1.35. “SEETEYLRLAIELILNETRTGDEHTFMENADPDAKLNFNGVHLHGMEEVTRRMHELWEELRIRHFELHDVSHVDGRLYVHIRLDVDVNGQKRTFRSEIVSEKINGKWYYKYMTIV” registered a protease stability score of 1.27. Regarding “SEEDEEAERMVRALNHKFRTGDWELSEKLFDPNTKLEIIINGKHIDIHGREMVIRLMEDELRRFDHVDIEIKRVDSQGEKANNDGVLVIKQGDFEVRHRFTLIIHVVNGVIKKISILFH”, the protease stability score was 0.996. Take “SEEEKELREIMKVFKDAFLTGNEDLLRQLMDPHVRFHIGDKKNHGWEALHEYLLRIDHLDDLHSHLTEVHIQGDKVKIDGHLHMVERYGDFRFEREIRVHIVIEKINGRWIIEEVHFI”: the protease stability score turned out to be 1.35. Sequence “DEDKEIAKKAIEDLLRAWYTGDEEFLKNLVDPNVRSNFDGVDYHGRDEVEKFWHDHLRDLGADHVEFSLHELRIYGDKIILHTKIKFNVNGREIRRETEVISRKIDGRWLIKEIHFR” came in with a protease stability score of 1.42. The sequence “SEHEHMIQVALELWLHTLHTGDEHKEERLHDPHARLRIGDKELHGREDVIRWMRKVKNVTINRVEVRRINFQGDKAILLVRIDGEFDGRRIDTEVIIIVVKVDGRWLFESMEID” returned a protease stability score of 1.31.

For “HEEEEHIWRMFKLFIHYLLTGDPDMLARYADPNVRLDINGQEWHGREEMFEMLKIFFDELRIKHFHLRRWRVVDGVAHVDVETHGNYNGREETRKVHIHVVIFNGRMKELVIKIS”, the protease stability score amounted to 2.66. The value for “REDEEMAEKISEFIFHVLETGDEKSNHENIDPNARTHIGDKHSHGRENVTRMMDWWMHFLGVKHIEKKDLEIQGNFAFLHSISVVGDKTFEIDVTALKVNGQWVFKKFQVN” was 1.64.

“DHVEHEVENVLRKTLHSFLTGDFELLHRLADPHVRSDINGVEIHGWEKLSKWILTLIEQVDHSEFDLKDIRLQGDFVRIHGELILRFNGKHIEIRVQSHVEKIDGRWVIHAVKLK”: the protease stability score was found to be 1.11. Sequence “SEDEHQSKLALELLQESSYTGDWKTSQDLMDPHARFVIGDKYVHGMEEVSRMMEEIRIEEIHIRKIHTVGNKIEIKGEIRIRIGDKHTSTEVEWVASKVNGRWLLEELVVH” had a protease stability score of 0.511. Regarding “DDEEKMFVHLAKLFTDIMTTGDEKFLDELVDPNVRFDVNGRLRVGREELKKAIQDWWREIRVDEILIHEIDVIDGRLRMDGRMRGDIDGQETYLELHIILHVIDGRMTHVEIRHQ”, the protease stability score worked out at 2.38. The sequence “DERTEHSEENVKLFIEALRTGDFKTLLRLVDPHVRVIVIINGKEINNHGWEEFLRWMREEFERYPNLRVKVRHLDIQGDFVRVEGHLEVGDKSHRIHLHLLIINGVVELELYIFR” gave a protease stability score of 1.92. Regarding “NEMEEYVERASRFVYELLQTGDWEKLMNNMDPNVKIRQGNKEYHGREELKRQLEELFKNWGFDRIDVEHHEIKIFENHAHIIHIMRFDGVEHELRIKALKVNGQWLFKTVEIRLH”, the protease stability score stood at 1.36.

As to “DEEEEKLRELIRIFIEDWKTGDFDSLAHLLDPNARLDIHINGVHLHYHGREKILEFLWRWFERFKNARVELKRIRIVNGRSEIDSETTFNGRSSDMEIDIVIINGRVRSERFKVG”, the protease stability score was found to be 1.47.

The sequence “DEDEHDVRELIELVLQVERTGNWKIFERLADPNVRLNIDGQEFHGREEALKLREDLLHHWGVDNIEVTLEDVTFQGDKVNSHFTSQFNGREFELIVIIMKIDGKWFLHQIQVHER” displayed a protease stability score of 1.19. Turning to “SEEKDQLKHVLEDLLRSIITGDEERIVELLDPEVRVDVGEKHSHGRENAAHLVQKLSEELRWRDIHVRDVRLIGDKIDIETRLEGDINGRNLIFQTHRHVIKVNGRWYFRRIIIH”, the protease stability score came to 1.38. Next, “DEETRHAREMMRIIAESLHTGDEDRLLEMIDPNVRVHVDGQDYHGREQWFQYLHEELRHLRIKHLTVTHHKVYDGRVELHLRVHGEVNGRHTEKTFIVIILKVDGRWKIESLRIE”: 2.15. The value for “DEEEELREESEKFEHRAWETGDWKLLAELMDPHTRFITEDHDFHGRENMEKLLEDDLRRIKNATIRSIIIRRTHEINGRLLLIGIVDVEIDGKRVIRDVKYIKVKINGRWYITTMQVR” was 0.796. Regarding “DEMREEVETILKLMEEWEKTGDFETILTYLDPNARLHENINGRELHSHGREFIHWAYEFFKNLRIETVQEDEVHIFENHFQIRVTLKGTINGRHYIFHRIIIINAIDGRIRHEVILYK”, the protease stability score turned out to be 1.53.

For “HEDEELSRKAVELMLELIMTGDEDTIRSLADPDTRIEINGRHHHGRHLMVEFMREWFRRYPNVQLDVHSLDIDLFNGRVLIQINLEIRIGDKHHRVRINIHADKVDGRWRLKEVRIEIK”, the protease stability score was 1.5. The value for “SEEEEIYKEYAELMIHIIKTGDEDALRLLLDPNTQTFINGRNIHGMDEHIRHWRHFFKKFKNMRIEITRLEIQGDKVRIHMRIEQGDKILHLLFIIVIINGRNEEIEVRIHTQ” was 1.69; that for “DHNKEAADHILHLLRQSWRTGDEEIFQRLIDPNVKLQVGDKQFHGREEVTRWIQLYLLRFKGITIHDIEVKEVRTYDGRVEAREIHHNHVNGQDHSLDVHLYIVKVNGQWRLESMHVN” was 1.77; that for “DEIEEQSRRALHEYINKILTGDEKSLTDLMDPDARLIVGDKEVHGRKLVHEWMSQWTEHIRIKHVHLHDIEIIGEKVHLDMRLHGIINGKETEHKVELHMYKINGKWIIHTVKIL” was 2.04. Regarding “DEEDRELERIYQELFEAWLTGNEDDLKKLADPNVRVDINGKDKVGREQEIEDLRRVKNMKVKLEDSDIIGDWITVDVVINFNGREIRMELEWRVINGKVKRVIVRYR”, the protease stability score is 1.2. For “SEEHTIAEEAIKHLIEILETGDFRTLHRMIDPHVRFEYGDKHLHGREILIKWFEEHWEKLGVDKVEVHVKDIEIQGNKAIVIGDIVINGQRKDTVWHLIVINGRIKMIRIEEH”, the protease stability score came out at 1.7. “DEEEQLSKIALRHFVESLETGDEHLLHRLIDPHARDIVDGVEIHGRDRMVENLIHMIERFKNVRLEIKDIKVINGRVHVEGRLEVDGKKLTMNLHFQKFDGRWWVRSVERH” showed a protease stability score of 1.52.

Sequence “DEHEEQIEEFWRITVDQWMTGNEELIETYLDPNARVDINGKQTHGREQVTRLMLREMKHMRIKSIKLRRVRIVDGRVDLDGTLHGEVNGREFVLESHVHAEKFDGRWLIRTIKVN” gave a protease stability score of 2.23. Next, “SEEEEDSLIAWKLYFEIEQTGDEKSLEHYMDPDTRYSQGEFRMHGREYTYHIIFRNRKRLGWDRVEVRLHSYEIINGRIKLDMRVHVNGVDINLLVIAFKFNGKWTIETVRIE”: 1.36. The value for “SEDDEDVERAAKLMLHILRTGDERHLHEYLDPNVRSIVNGREFHGRESLLHVMTLQMRELGIDHINVRRVKYDEDEVHFFMNVNINGQHREVIFRAKKINGRWIFHEVELR” was 1.7; that for “HEEKHLMDEALELIKYFTETGDERQLTEYADPNVRIDIDGQRFHGREDWEELVREWNSRFKNLKFNFREIDVQGEFIHTRGELNVNGKRFDVRIVSDKINGRWILHSIHFE” was 1.58. Sequence “DERHEHAKEYLEMWLHSIFTGDERTLMELVDPNAKHLVNGRERHGRDELSRILIHIRMHVRDSKLRDMRVVGDKAIIHTEVDEELHFNGRTVRMIVEVEIYLFKVNGKWVFTEIRII” came in with a protease stability score of 1.29. Next, “DHEEEHALRIMQLLLWLDFTGDEETIHHLMDPHVRSVWIVGDKTITRHGRENVLKLFRDLGFKHVKDFRIRDVSAFDGRVDLKGRIDGQYGDKRETWDMDVELNVVDGRLKFFIIRFK”: 1.69.
